Test results taken from patent US20170128468A1, “PHOSPHATIDYLGLYCEROL AS AN ANTI-INFLAMMATORY” (Agusta University Research Institute, Inc., priority 2015, published 2017).

Columns and labels:
TPA-induced ear edema = assay: Contact irritant (TPA) ear edema mouse in vivo model
Experimental: Experiments were performed as described in (27). Briefly, the ears of three to five male ICR CD-1 outbred mice [25-30 g; 5-6 weeks of age from Harlan Laboratories (Indianapolis, Ind.)] were treated with acetone or TPA (0.03% in acetone), and at 1 h and 4 h after TPA, the appropriate vehicle or the treatment in vehicle was applied to each ear. Ear thickness was measured using a caliper both before and at approximately 18-20 h after TPA treatment prior to sacrifice. After sacrifice, a circular ear punch biopsy (4 mm^2) was taken, weighed, and fixed in formalin. Histological evaluation included H&E staining and immunohistochemical staining for CD45 to quantify the number of infiltrating immune cells (see below).
Sections (10 μm) were cut from formalin-fixed paraffin-embedded ear biopsies and deparaffinized and rehydrated as described in (28). […] Multiple random sections (4 to 8 per mouse separately from the left and right ear) were counted by two independent observers in a blinded fashion, counts averaged to determine a value for each mouse ear and values statistically analyzed as described below.
Experiments were performed as described in Clark S P; Bollag W B; Westlund K N; Ma F; Falls G; Xie D; Johnson M; Isales C M; Bhattacharyya M H: Pine oil effects on chemical and thermal injury in mice and cultured mouse dorsal root ganglion neurons. […] Ear thickness was measured using a caliper both before and at approximately 18-20 h after TPA treatment prior to sacrifice. […] Histological evaluation included H&E staining and immunohistochemical staining for CD45 to quantify the number of infiltrating immune cells (see below).
Sections (10 μm) were cut from formalin-fixed paraffin-embedded ear biopsies and deparaffinized and rehydrated as described in (Voss K E et al., Arch. Dermatol. Res. 303 591-600 (2011)). […] Multiple random sections (4 to 8 per mouse separately from the left and right ear) were counted by two independent observers in a blinded fashion, counts averaged to determine a value for each mouse ear and values statistically analyzed as described below. […]

[1] = system: Pam3CSK4-induced inflammatory mediator expression in keratinocytes; assay: qRT-PCR of inflammatory mediator mRNA in keratinocytes treated with Pam3CSK4 (TLR1/2 agonist); format: cell-based, mouse; details: agonist alone, in vitro
Experimental: (§1) Primary cultures of mouse epidermal keratinocytes were prepared from ICR strain CD-1 outbred neonatal mice 1-3 days of age as described in detail in (Bollag W B, et al., J Invest Derm 100 240-246 (1993); Griner R, et al., J Biol Chem, 274 4663-4670 (1999)). All procedures were approved by the Institutional Animal Care and Use Committee. RAW264.7 cells, a mouse macrophage-derived cell line, were kindly provided by Drs. Qing Zhong and Carlos Isales (Augusta University) and were cultured in DMEM containing 10% fetal bovine serum and 1% penicillin and streptomycin.
(§2) Keratinocytes were treated with or without TPA or a synthetic triacylated lipoprotein (Pam3CSK4), a TLR1/TLR2 agonist, or recombinant S100A9 (R&D Systems) or HSPB4 (MyBiosoruce) as indicated, for 2 hours in the presence and absence of different concentrations of soy PG or dioleoylphosphatidylglycerol (DOPG). Cells were harvested and RNA isolated using PerfectPure RNA tissue kits (5 PRIME, Inc, Gaithersburg, Md., USA) as per the manufacturer's protocol. Following verification of RNA integrity using a Nanodrop instrument (NanoDrop Technologies, Wilmington, Del.), RNA was reverse-transcribed to cDNA with iScript cDNA synthesis kits (Bio-Rad Laboratories, Hercules, Calif., USA) and analyzed by real-time PCR using Taqman primer/probe sets from Applied Biosystems (Life Technologies, Grand Island, N.Y.). […]

[2] = system: Pam3CSK4-induced inflammatory mediator expression in macrophage cell line RAW 264.7; assay: qRT-PCR of inflammatory mediator mRNA in RAW 264.7 macrophage cell line treated with Pam3CSK4; format: cell-based, mouse; details: Pam3CSK4 1 or 2.5 μg/mL alone; 2 h; FIGS. 3A-3D
Experimental: as §1
(§3) Keratinocytes were treated with or without TPA or a synthetic triacylated lipoprotein (Pam3CSK4), a TLR1/TLR2 agonist, or recombinant S100A9 (R&D Systems) or HSPB4 (MyBiosoruce) as indicated, for 2 hours in the presence and absence of different concentrations of soy PG or dioleoylphosphatidylglycerol (DOPG). Cells were harvested and RNA isolated using PerfectPure RNA tissue kits (5 PRIME, Inc, Gaithersburg, Md., USA) as per the manufacturer's protocol. Following verification of RNA integrity using a Nanodrop instrument (NanoDrop Technologies, Wilmington, Del.), RNA was reverse-transcribed to cDNA with iScript cDNA synthesis kits (Bio-Rad Laboratories, Hercules, Calif., USA) and analyzed by real-time PCR using Taqman primer/probe sets from Applied Biosystems (Life Technologies, Grand Island, N.Y.). Reactions were performed using Fast Reagent PCR Master Mix (Applied Biosystems) and a StepOnePlus Real-Time PCR System (Applied Biosystems) as instructed by the manufacturer. Expression of genes of interest was determined using the delta-delta Ct method normalized to the expression of GAPDH as the endogenous housekeeping gene and expressed relative to the appropriate control group.

[3] = system: NF-κB phosphorylation/activation in RAW264.7 cells; assay: Western analysis of NF-κB phosphorylation/activation in RAW264.7 cells stimulated with Pam3CSK4; format: cell-based, mouse; details: 2.5 μg/mL Pam3CSK4 alone; 10 minutes; FIG. 9
Experimental: Membranes containing transferred proteins were blocked with 5% non-fat dry milk for at least 30 minutes before incubating with the appropriate primary antibodies, overnight, followed by washing and incubating with secondary antibodies for 1 h at room temperature. Immunoreactivity was visualized using infrared imaging on an Odyssey imaging system (LI-COR Biosciences, Lincoln, Nebr.).

[4] = system: S100A9-induced inflammatory mediator expression in keratinocytes; assay: qRT-PCR of inflammatory mediator mRNA in keratinocytes treated with recombinant S100A9 or LPS; format: cell-based, mouse
Experimental: as §1, §3

[5] = system: HSPB4-induced inflammatory mediator expression in RAW cell line; assay: qRT-PCR of inflammatory mediator mRNA in RAW 264.7 cells treated with recombinant HSPB4; format: cell-based, mouse; details: 0.1 or 1 μg/mL recombinant HSPB4 alone; 2 h; FIGS. 7A-7D
Experimental: as §1, §2

[6] = system: TNFα protein secretion by RAW264.7 cells; assay: TNFα protein secretion by ELISA in RAW264.7 culture supernatants; format: cell-based, mouse; details: DAMP alone (S100A9 2 μg/mL; HSPB4 0.1 or 1 μg/mL); 2 h; FIGS. 8A-8B
Experimental: Cells were treated with recombinant S100A9 or recombinant HSPB4 as indicated and media collected. TNFα levels were determined in the supernatant using an ELISA kit (BD Biosciences) according to the manufacturer's instructions.
Mouse TNFα ELISA kits from BD Biosciences (San Jose, Calif.) were used. RAW264.7 cells were treated with or without recombinant S100A9 or HSPB4 in the presence and absence of DOPG for 2 hours. Cell culture supernatants were collected and stored at −80° C. and subjected to a single freeze-thaw cycle. The ELISA assay was performed according to the manufacturer's instructions with the optical density detected in each sample within 30 minutes, at a wavelength of 450 nm and corrected at 570 nm.

[7] = system: S100A9-induced inflammatory mediator expression in RAW 264.7 macrophage cell line; assay: qRT-PCR of inflammatory mediator mRNA in RAW 264.7 cells treated with recombinant S100A9; format: cell-based, mouse; details: 2 μg/mL recombinant S100A9 alone; 2 h; FIGS. 6A-6D
Experimental: as §1, §2

[8] = recombinant S100A9 alone, keratinocytes, data not shown

C=C1/C(=C\C=C2/CCC[C@]3(C)[C@@H]([C@H](C)CCCC(C)(C)O)CC[C@@H]23)C[C@@H](O)C[C@@H]1O [1,25-dihydroxyvitamin D3]
effect on ear edema (TPA-induced ear edema; agent alone in 95% ethanol/5% water, applied 1 and 4 h after 0.03% TPA, FIGS. 10A-10C): neither 1,25-dihydroxyvitamin D3 nor soy PG alone had a significant effect

CCCCCCCCCCCCCC(=O)O[C@@H]1[C@@H](C)[C@@]2(O)[C@@H](C=C(CO)C[C@]3(O)C(=O)C(C)=C[C@@H]23)[C@@H]2C(C)(C)[C@]12OC(C)=O [TPA, 12-O-tetra-decanoylphorbol 13-acetate]
increase in ear thickness (TPA-induced ear edema; TPA alone, no subsequent treatment with vehicle, percent change from time 0): 147±16%
increase in ear weight (TPA-induced ear edema; TPA alone, no subsequent treatment with vehicle, punch biopsy versus no-TPA mice): 158±6%

Pam3CSK4 [reference compound]
inflammatory mediator expression in keratinocytes treated with TLR2 agonist [1]: increased
mRNA levels of IL1α, IL1β, IL6 and TNFα upon stimulation [2]: up-regulated
phosphorylation/activation of NF-κB (pNFκB/NFκB ratio) [3]: increased

phosphatidylglycerol [PG]
S100A9-induced expression of IL-1β ([4]; 100 μg/mL DOPG with 3 μg/mL recombinant S100A9, 2 h, FIG. 5A): inhibited
S100A9-induced expression of IL-6 ([4]; 100 μg/mL DOPG with 3 μg/mL recombinant S100A9, 2 h, FIG. 5B): inhibited
S100A9-induced expression of TNFα ([4]; 100 μg/mL DOPG with 3 μg/mL recombinant S100A9, 2 h, FIG. 5C): inhibited

B1: HSPB4: recombinant small heat shock protein, a DAMP shown to mediate sterile corneal inflammation (protein, UniProt P02489 1-173, looked up)
Alpha-crystallin A chain: MDVTIQHPWFKRTLGPFYPSRLFDQFFGEGLFEYDLLPFLSSTISPYYRQSLFRTVLDSGISEVRSDRDKFVIFLDVKHFSPEDLTVKVQDDFVEIHGKHNERQDDHGYISREFHRRYRLPSNVDQSALSCSLSADGMLTFCGPKIQTGLDATHAERAIPVSREEKPTSAPSS
inflammatory mediator expression (IL1α, IL1β, IL6, TNFα mRNA) [5]: stimulate
TNFα protein secretion [6]: induce

B2: S100A9: recombinant anti-microbial protein, a DAMP that activates TLR2 (as well as TLR4) (protein, UniProt P06702 1-114, looked up)
Protein S100-A9: MTCKMSQLERNIETIINTFHQYSVKLGHPDTLNQGEFKELVRKDLQNFLKKENKNEKVIEHIMEDLDTNADKQLSFEEFIMLMARLTWASHEKMHEGDEGPGHHHKPGLGEGTP
IL-1α expression ([4]; S100A9 alone, keratinocytes): only minimally stimulated
expression of IL1β ([4]; recombinant S100A9 alone, 1 to 3 μg/mL, 2 h, FIG. 4B): stimulated
expression of IL6 ([4]; recombinant S100A9 alone, 1 to 3 μg/mL, 2 h, FIG. 4C): stimulated
expression of TNFα ([4]; recombinant S100A9 alone, 1 to 3 μg/mL, 2 h, FIG. 4D): stimulated
expression of TLR1 [4, 8]: induced
expression of TLR2 [4, 8]: induced
inflammatory mediator expression (IL1α, IL1β, IL6, TNFα mRNA) [7]: increases
TNFα protein secretion [6]: induce

B3: denatured (heated) S100A9: heat-denatured recombinant S100A9 protein (protein, UniProt P06702 1-114, looked up)
Protein S100-A9: MTCKMSQLERNIETIINTFHQYSVKLGHPDTLNQGEFKELVRKDLQNFLKKENKNEKVIEHIMEDLDTNADKQLSFEEFIMLMARLTWASHEKMHEGDEGPGHHHKPGLGEGTP
modifications: heat-denatured
notes: heat-denatured recombinant S100A9 protein
stimulating inflammatory mediator mRNA levels, relative to native S100A9 ([4]; denatured (heated) protein, keratinocytes): significantly less effective
